Non-standard residues stand in square brackets, D forms with d. No end group written: not given here. pT = C[C@@H](OP(=O)(O)O)[C@H](N)C(=O)O; pS = N[C@@H](COP(=O)(O)O)C(=O)O
Biological target: full-length human PNK (human, UniProt Q96T60 1-521)
Assay: ITC

stoichiometry N | Binder
0.49 | YAG[pS][pT]DEN[pT]D[pS]E [XRCC1 peptide YAGpSpTDENpTDpSE, phosphorylated on Ser518, Thr519, Thr523 and Ser525]
0.61 | YAG[pS][pT]DENTDSE [XRCC1 peptide YAGpSpTDENTDSE, phosphorylated on Ser518 and Thr519]

Reference: PMC2655680 (Nucleic Acids Research, 2009)
